Laboratory results published in US20240067706A1 (CENTER FOR EXCELLENCE IN MOLECULAR CELL SCIENCE CHINESE …, published 2024).

Assays:
[1] = target: T1, SARS-CoV-2 S1 protein (SARS-CoV-2, UniProt P0DTC2 16-685); assay: ELISA, coated protein
T1 construct: domain: S1

[2] = target: T2, SARS-CoV S protein expressed on the cell surface (SARS-CoV, UniProt P59594 14-1255); assay: flow cytometry on CHO cells transfected with S protein
T2 construct: whole, on cells

B1: fully human monoclonal antibody 76E1 (antibody, V domains shown)
VH: EVQLVESGGGVVQPGGSLRLSCEASGFSFKDYGMHWIRQTPGKGLEWISRISGDTRGTSYVDSVKGRFIVSRDNSRNSLFLQMNSLRSEDTALYYCAALVIVAAGDDFDLWGQGTVVTVSS
VL: QSALTQPLSVSGSPGQSVTISCTGSSSDIGSYNFVSWYRQYPGKAPKVMIYEVNKRPSGVPVRFSGSKSGNTASLTVSGLQHEDEADYYCCSYGGRNNLIFGGGTKLTVL
notes: also called 76E1 antibody
binding result [1]: no binding (tested: 10 µg/ml initial test concentration) | binding result [2]: binds
